B1: TPR t1 (parent)
chain: GACCAAUCUGCCCUCAGAGCUCGAGAACAUCUUCGGAUGCAGAGGAGGCAGGCUUCGGUGGCGCGAUAGCGCCAACGUCCUCAACCUCCAAUGCAUCCCACCACAUGAUGAUGCCUGAAGAGCCUUGGUUUUUUG

Variants of: B1
Experiment: polymerase ribozyme fitness, log enrichment relative to wild type (log ratio); higher = more active; in vitro selection for triplet polymerase activity
Outline: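 Each subunit of a heterodimeric triplet polymerase ribozyme was represented by a PCR-built, transcribed mutant library that underwent triplicate single-round in vitro selection with frozen incubation at −7 °C. Extended constructs were recovered by gel excision, streptavidin-bead capture and RT-PCR, and Illumina sequencing of input and output libraries kept genotypes with ≥10 input reads and ≥1 read per output. Fitness is the logarithm of genotype enrichment relative to wild-type enrichment, from inverse-variance-weighted replicate averages, with a logarithm base of 2.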

Variant	polymerase ribozyme fitness (log ratio)
G44A C79A	-3.11
G44C C53A C88U A100U	-0.527
G44A G60A	-0.624
G45A G61C U81G	-6.11
G45A C70U	-1.29
G45A U87G	-0.388
G44A G63A C80A G110U C115G	-7.37
G44U G93U G117A	-3.24
A43C G61C U112A	-5.07
G44A G122A G128C	-3.84
A43C G60A	-2.3
G44C C62A G77A U133A	-4.24
G44C C53G C73U C82U C99G C124G	-7.17
G44U G61A C99U	-4.01
G45A G51A C79A	-3.77
A43U G63U U134G	-3.02
G44U G63C C72U A111U	-5.44
G44A A111G	-0.69
G44U G69U	-0.207
G44C C98U	-2.37
G45A G58A A111C A118C	-0.455
G44C G61C	-3.07
A43C C70A C94U	-6.65
G44C G63A	0.0487

Variant	polymerase ribozyme fitness (log ratio)
G45A A50G G93C	-1.62
G44U G71C	-2.58
G44A C53G G63U C102A A105G G117C	-7.23
G45C A66U C79G C82U	-3.83
A43G G44U A46U	-2.25
G45A A50C	-1.09
A43G A103C A119G A121G G122U G135U	-4.67
A43U G63A	-2.51
A43U G63C	-2.12
G44C C76U U81G	-5.45
G42U G57U C85A	-2.51
A43U U96A A121U	0.867
A43U C73G	-2.69
A43U C73A	-1.5
A43U C73U	-0.963
G44U C82U C89A C124A	1.91
G45A A74U U112G	-0.353
A43U C70U	-2.1
G44U C98U	-2.19
A43G A50U C62A A90G U131A	-5.99
A43G G107A	-6.28
G42U U87G	-0.907
A43U C49A C89U A90C U133G	-1.26
G44U U54A U55C	-2.01

Variant	polymerase ribozyme fitness (log ratio)
G44C U54A C82U C114G	-4.01
A43C G117U	-5
G44U G77A C101A	-1.37
A43G C114U	-1.57
G44A G110U	-2.5
A43U U87G A91C A95G A118G	-1.27
A43U A75U U126G	-3.5
G45A C53U	-1.11
G44C A74U	-1.2
A43G G69A	-6.04
G44A G77A U106C G117A	-3.03
G45A U59A C64U G128U	-2.82
G45A G48A G51U A83U U126G	-5.24
G42U G93C U133A	-3.57
G45A U112A	1.41
G44A C49A C73U U116C	-2.91
A43U A46G U96G U112A G128A	-3.6
G44A A111C U131G	-2.35
A43C C94U	-2.66
A43C C94G	-4.54
A43G C72A C102U C114G	-4.55
A43G A50U	-3.81
G44U C94G	-3.91
G44U C94A	-2.53

Variant	polymerase ribozyme fitness (log ratio)
G44U U78C A108G	-4.95
G44C A50G A111U C123A G135U	-5.29
G44A C49U U106C	-2.86
A43U C123G G127C	-1.59
A43U G77U C88G	-2.17
A43U G44A A68U C70A C115A C124A U125C U132A	-6.95
G44U C62A A90G	-2.16
G44A A46G G52A C123A	-1.71
A43C C123A	-2.65
A43C U87C	-1.86
A43G U54G C89G C94G	-3.3
G45A A46C C49U C101A U112G U131A	-5.02
G44C G61U C102A	-2.81
G44A G52U G63U U87A	-5.6
G44A C72G U112G G117A	-5.1
G44C G71A	-1.25
A43U G61U	-2.41
A43U G61C	-4.42
G45A C102U G120C	-1.47
A43C C49U G63U A66C	-5.38
G42U G77U	-1.86
G44A C49U C76G C88G	-3.44
G45A C70G C85A	-4.9
A43U A46G C62G U106A	-5.98

Variant	polymerase ribozyme fitness (log ratio)
A43U U55A G127A	-3.12
G45C A84G U87G	-3.02
G44A U55C U81A	-2.83
G44C C88G	-2.18
A43U C104U	-0.812
G44A G93U C124G	0.0379
G45A C49A	-0.473
G42U G117A	-2.9
G44C U55C	-1.02
G42U G63C C76A G77U A90U G117C G127U G128C	-3.83
G44C G61C A100C U106A	-4.28
G44A G61U C88G	-2.64
G44C G61A A95U G110A	-1.72
A43G G60C C73A C88A	-3.87
G44A G113A	-2.35
G44C A84C	-0.969
G44C A84U	-1.11
G44U G63A U78A G117C	-6.55
G44U C79G A91C C115A	-5.13
G44A A50C G63A C85A	-4.52
G42U G71A U92A	-3.78
A43C G63C	-3.41
G44U C72G	-1.28
G42U G58C U87C G120A C123G U125A	0.38

Variant	polymerase ribozyme fitness (log ratio)
A43G G71C U87G	-4.59
G45C C102G A121U U126G G128U	-4.67
G44U C56A C102U	-3.03
G45A C72A G117U	-2.7
G44A G69U U81A	-0.353
G44U A84C A91C	-1.65
G45A G63A U67C C82U A84G U96A C98G C124U	-8.07
A43C C62U U87G C88G A90C G127C U132C	-3.94
G45A A46U	-1.72
G44U C97G G113A	-5.15
G45A G61U U130G	-0.472
G44A C72G C79A A83U U112G G122A U132C	-6.81
A43G G58C G60A	-2.53
G42U G63A G93U	-3.94
G45A C76U C86G	-3.23
G44A G60U G117C	-5.36
A43C G44C	-1.05
A43G C82G C114U A119G U131A	-2.01
G45C C49U C56G A121C	-0.675
A43G G61U C94G A103U C114G	-5.99
G44U C49A G110A	-3.22
G44C C94U	-1.02
A43U C102A	-4.93
G44U A84U A118G	-2.17

Variant	polymerase ribozyme fitness (log ratio)
A43G C70A	-4.41
G45A U54A G61C	-0.932
G45A C115G G127C	-4.31
G44A G57C G61A U112C G120A G127A	-1.81
A43U C56G G63A	-5.13
A43U C72U	-1.17
A43G C64U C82G C114U A119G U131A	-1.99
G45C G48C C53G G107A A121G	-5.84
G44A A50G C73U C102A C115G	-5.62
G44U G110C	-3.92
A43G C80U	-2.86
G44U C70U	-2.01
G44U G71C G93A	-3.04
A43G G47C C64U C86G U125G G127C	-3.04
A43U G45C C49U G120A	-3.19
G44A G60C C124A	0.703
A43C U55C C64U A84G G110U U125A	-6.14
G44A G61C	-3.11
A43U G63A A95G G122U	-4.37
G44A C101A U109A	-5.41
A43C G45C G63C G117U A118U G135A	-5.43
G45A G63C	-0.827
A43G A46U G63U U87A U92G G120C U130C	-6
